± gives the uncertainty stated by the source.
Assay: abundance fitness (aPCA) (normalised: wild type 0, dead -1); higher = more abundant; growth selection in yeast, the domain comes from the species named
Conditions: Homo sapiens

Row | Substance | abundance fitness
1 | Scaffold attachment factor B2 L56F, Q14151 | -0.816 ± 0.12
2 | Scaffold attachment factor B2 E66G, Q14151 | -0.108 ± 0.083
3 | Scaffold attachment factor B2 G50F, Q14151 | -0.51 ± 0.17
4 | Scaffold attachment factor B2 G68F, Q14151 | -0.509 ± 0.17
5 | Scaffold attachment factor B2 K44L, Q14151 | -0.256 ± 0.11
6 | Scaffold attachment factor B2 E67R, Q14151 | -0.445 ± 0.1
7 | Scaffold attachment factor B2 K43G, Q14151 | -0.172 ± 0.074
8 | Scaffold attachment factor B2 K43L, Q14151 | -0.191 ± 0.089
9 | Scaffold attachment factor B2 L38C, Q14151 | -0.532 ± 0.1
10 | Scaffold attachment factor B2 K53E, Q14151 | -0.136 ± 0.091
11 | Tyrosine-protein kinase Lck F113S, P06239 | 0.094 ± 0.071
12 | Scaffold attachment factor B2 L38W, Q14151 | -0.791 ± 0.092
13 | Scaffold attachment factor B2 K65T, Q14151 | 0.044 ± 0.17
14 | Scaffold attachment factor B2 I36M, Q14151 | 0.043 ± 0.17
15 | Scaffold attachment factor B2 S54Q, Q14151 | 0.042 ± 0.1
16 | Scaffold attachment factor B2 Q69N, Q14151 | -0.717 ± 0.32
17 | Scaffold attachment factor B2 S54C, Q14151 | -0.44 ± 0.14
18 | Scaffold attachment factor B2 E32V, Q14151 | -0.393 ± 0.077
19 | Scaffold attachment factor B2 E58I, Q14151 | -0.576 ± 0.11
20 | Scaffold attachment factor B2 I36F, Q14151 | -0.507 ± 0.17
21 | Scaffold attachment factor B2 M57K, Q14151 | -0.473 ± 0.13
22 | Scaffold attachment factor B2 Q69A, Q14151 | -0.094 ± 0.13
23 | Scaffold attachment factor B2 R59I, Q14151 | -1.2 ± 0.22
24 | Scaffold attachment factor B2 E58G, Q14151 | -0.26 ± 0.077
25 | Scaffold attachment factor B2 Q69F, Q14151 | -0.656 ± 0.2
26 | Scaffold attachment factor B2 E67Q, Q14151 | -0.246 ± 0.1
27 | Scaffold attachment factor B2 G68T, Q14151 | -0.026 ± 0.12

Row | Substance | abundance fitness
28 | Scaffold attachment factor B2 T27R, Q14151 | -0.275 ± 0.096
29 | Scaffold attachment factor B2 V55L, Q14151 | -0.167 ± 0.14
30 | Scaffold attachment factor B2 E32R, Q14151 | -0.431 ± 0.087
31 | Scaffold attachment factor B2 G68Q, Q14151 | -0.078 ± 0.1
32 | Scaffold attachment factor B2 M57I, Q14151 | -0.319 ± 0.099
33 | Scaffold attachment factor B2 R29Y, Q14151 | -0.4 ± 0.12
34 | Scaffold attachment factor B2 R29P, Q14151 | -0.117 ± 0.13
35 | Scaffold attachment factor B2 N52T, Q14151 | -0.037 ± 0.093
36 | Scaffold attachment factor B2 K44A, Q14151 | -0.067 ± 0.08
37 | Scaffold attachment factor B2 E66K, Q14151 | -0.5 ± 0.26
38 | Scaffold attachment factor B2 E32L, Q14151 | -0.543 ± 0.1
39 | Scaffold attachment factor B2 N46D, Q14151 | -0.104 ± 0.12
40 | Scaffold attachment factor B2 R29K, Q14151 | -0.038 ± 0.099
41 | Scaffold attachment factor B2 I36H, Q14151 | -0.208 ± 0.2
42 | Scaffold attachment factor B2 L30Y, Q14151 | -0.086 ± 0.12
43 | Scaffold attachment factor B2 E58F, Q14151 | -0.769 ± 0.11
44 | Scaffold attachment factor B2 L47W, Q14151 | -0.696 ± 0.11
45 | Scaffold attachment factor B2 K43C, Q14151 | -0.271 ± 0.12
46 | Scaffold attachment factor B2 R34G, Q14151 | 0.012 ± 0.077
47 | Scaffold attachment factor B2 L47N, Q14151 | -0.877 ± 0.23
48 | Scaffold attachment factor B2 D70A, Q14151 | 0.141 ± 0.14
49 | Scaffold attachment factor B2 Q69G, Q14151 | 0.174 ± 0.095
50 | Scaffold attachment factor B2 E67P, Q14151 | -0.377 ± 0.12
51 | Scaffold attachment factor B2 S54R, Q14151 | 0.071 ± 0.074
52 | Scaffold attachment factor B2 L33F, Q14151 | -0.106 ± 0.23
53 | Tyrosine-protein kinase Lck I67R, P06239 | -0.263 ± 0.097

— the Human Domainome abundance scans (Beltran et al. 2025)
